± gives the uncertainty stated by the source.
Assay: self-splicing fitness, log relative to wild type (ln ratio); higher = more splicing; Tetrahymena group I intron in knt gene, E. coli kanamycin selection, DiMSum; sequences stand for … in CUCUCU…GGAGGGAAAAGUUAUCAGGCAUGCACCUGGUAGCUAGUCUUUAAACCAAUAGAUUGCAUCGGUUUAAAAGGCAAGACCGUCAAAUUGCGGGAAAGGGGUCAACAGCCGUUCAGUACCAAGUCUCAGGGGAAACUUUGAGAUGGCCUUGCAAAGGGUAUGGUAAUAAGCUGACGGACAUGGUCCUAACCACGCAGCCAAGUCCUAAGUCAACAGAUCUUCUGUUGAUAUGGAUGCAGUUCACAGACUAAAUGUCGGUCGGGGAAGAUGUAUUCUUCUCAUAAGAUAUAGUCGGACCUCUCCUUAAUGGGAGCUAGCGGAUGAAGUGAUGCAACACUGGAGCCGCUGGGAACUAAUUUGUAUGCGAAAGUAUAUUGAUUAGUUUUGGAGUACUCGUGGUCG
Procedure, shortened: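 Six replicate transformations of E. coli BL21(DE3) with a pET-22b(+) library were grown overnight at 37°C or 30°C. The library randomised all eight P1ex-region intron nucleotides, the intron lying in the knt kanamycin-resistance gene, and plates were LB agar with or without 25 μg/mL kanamycin plus 100 μg/mL carbenicillin, 50 μM IPTG and 0.2% rhamnose. Pooled colonies were amplicon-sequenced on an Illumina HiSeq 2500, and fitness is the DiMSum error-weighted combination of wild-type-normalised replicate fold changes, kanamycin versus none.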

In the case of CCGUAGCAAUAUUACGUACA, the “self-splicing fitness (ln)” value (30 °C) is reported as -2.04 ± 0.14 and the “self-splicing fitness (ln)” value (37 °C) is reported as -1.8 ± 0.19.
In the case of AAAAAGCAAUAUUACGAUGU, the “self-splicing fitness (ln)” value (30 °C) is reported as -0.893 ± 0.064 and the “self-splicing fitness (ln)” value (37 °C) is reported as -0.0506 ± 0.079.
With AUGCAGCAAUAUUACGGGUC the “self-splicing fitness (ln)” value (30 °C) was -3.56 ± 0.31 and the “self-splicing fitness (ln)” value (37 °C) was -1.61 ± 0.13.
For GAUAAGCAAUAUUACGGCUA, the “self-splicing fitness (ln)” value (30 °C) was -0.974 ± 0.12 and the “self-splicing fitness (ln)” value (37 °C) was 0.143 ± 0.15.
For AUCAAGCAAUAUUACGACUU, the “self-splicing fitness (ln)” value (30 °C) was -0.501 ± 0.049 and the “self-splicing fitness (ln)” value (37 °C) was 0.297 ± 0.064.
With UACAAGCAAUAUUACGAGAG the “self-splicing fitness (ln)” value (30 °C) was -3.24 ± 0.17 and the “self-splicing fitness (ln)” value (37 °C) was -2.65 ± 0.18.
In the case of CCAAAGCAAUAUUACGAGAC, the “self-splicing fitness (ln)” value (30 °C) is reported as -3.26 ± 0.24 and the “self-splicing fitness (ln)” value (37 °C) is reported as -2.31 ± 0.23.
For UCACAGCAAUAUUACGGACU, the “self-splicing fitness (ln)” value (30 °C) was -2.99 ± 0.15 and the “self-splicing fitness (ln)” value (37 °C) was -2.16 ± 0.14.
With CAAUAGCAAUAUUACGAAAA the “self-splicing fitness (ln)” value (30 °C) was -2.39 ± 0.34.
With AAGUAGCAAUAUUACGCCAC the “self-splicing fitness (ln)” value (30 °C) was -3.93 ± 0.36 and the “self-splicing fitness (ln)” value (37 °C) was -2.49 ± 0.42.
In the case of UGGCAGCAAUAUUACGGGCG, the “self-splicing fitness (ln)” value (30 °C) is reported as 0.162 ± 0.071 and the “self-splicing fitness (ln)” value (37 °C) is reported as 0.586 ± 0.1.
In the case of GCGCAGCAAUAUUACGUGGU, the “self-splicing fitness (ln)” value (30 °C) is reported as -2.14 ± 0.081 and the “self-splicing fitness (ln)” value (37 °C) is reported as -1.02 ± 0.086.
For AUCAAGCAAUAUUACGCUAA, the “self-splicing fitness (ln)” value (30 °C) was -2.95 ± 0.17 and the “self-splicing fitness (ln)” value (37 °C) was -1.1 ± 0.14.
With AACCAGCAAUAUUACGUAUC the “self-splicing fitness (ln)” value (30 °C) was -2.57 ± 0.097 and the “self-splicing fitness (ln)” value (37 °C) was -1.39 ± 0.1.
For UCACAGCAAUAUUACGCAUG, the “self-splicing fitness (ln)” value (30 °C) was -2.04 ± 0.098 and the “self-splicing fitness (ln)” value (37 °C) was -1.58 ± 0.098.
With ACAUAGCAAUAUUACGCAUA the “self-splicing fitness (ln)” value (30 °C) was -3.01 ± 0.17 and the “self-splicing fitness (ln)” value (37 °C) was -1.85 ± 0.12.
With AAAAAGCAAUAUUACGUACA the “self-splicing fitness (ln)” value (30 °C) was -0.777 ± 0.069 and the “self-splicing fitness (ln)” value (37 °C) was -0.613 ± 0.071.
With UAAAAGCAAUAUUACGUCUU the “self-splicing fitness (ln)” value (30 °C) was -0.765 ± 0.058 and the “self-splicing fitness (ln)” value (37 °C) was -0.487 ± 0.076.
With AUCGAGCAAUAUUACGUUAC the “self-splicing fitness (ln)” value (30 °C) was -3.04 ± 0.28 and the “self-splicing fitness (ln)” value (37 °C) was -1.82 ± 0.27.
With GCAGAGCAAUAUUACGGUCG the “self-splicing fitness (ln)” value (30 °C) was -3.23 ± 0.12 and the “self-splicing fitness (ln)” value (37 °C) was -1.44 ± 0.1.
In the case of UAGUAGCAAUAUUACGUCGC, the “self-splicing fitness (ln)” value (30 °C) is reported as -4.1 ± 0.43 and the “self-splicing fitness (ln)” value (37 °C) is reported as -2.3 ± 0.28.
For UUCCAGCAAUAUUACGAUCC, the “self-splicing fitness (ln)” value (30 °C) was -1.46 ± 0.45.
With CGUAAGCAAUAUUACGAACC the “self-splicing fitness (ln)” value (30 °C) was -0.935 ± 0.24 and the “self-splicing fitness (ln)” value (37 °C) was -1.46 ± 0.24.
In the case of UUCGAGCAAUAUUACGAGCG, the “self-splicing fitness (ln)” value (30 °C) is reported as -3.41 ± 0.4 and the “self-splicing fitness (ln)” value (37 °C) is reported as -1.47 ± 0.2.
For AGUAAGCAAUAUUACGAUUU, the “self-splicing fitness (ln)” value (30 °C) was -0.313 ± 0.1 and the “self-splicing fitness (ln)” value (37 °C) was -0.0587 ± 0.13.
With AUAAAGCAAUAUUACGGCCC the “self-splicing fitness (ln)” value (30 °C) was 0.659 ± 0.39 and the “self-splicing fitness (ln)” value (37 °C) was 0.503 ± 0.43.
With ACUAAGCAAUAUUACGACCG the “self-splicing fitness (ln)” value (30 °C) was -0.45 ± 0.17 and the “self-splicing fitness (ln)” value (37 °C) was 0.0545 ± 0.21.
In the case of AACGAGCAAUAUUACGGUAU, the “self-splicing fitness (ln)” value (30 °C) is reported as -4.43 ± 0.22 and the “self-splicing fitness (ln)” value (37 °C) is reported as -1.85 ± 0.12.
In the case of GGAGAGCAAUAUUACGAAUA, the “self-splicing fitness (ln)” value (30 °C) is reported as -2.51 ± 0.26.
For AAGCAGCAAUAUUACGAAAG, the “self-splicing fitness (ln)” value (30 °C) was -3.93 ± 0.23 and the “self-splicing fitness (ln)” value (37 °C) was -2.29 ± 0.17.
With AAACAGCAAUAUUACGACUU the “self-splicing fitness (ln)” value (30 °C) was 0.0535 ± 0.066 and the “self-splicing fitness (ln)” value (37 °C) was 0.468 ± 0.086.
In the case of AAUCAGCAAUAUUACGGAGC, the “self-splicing fitness (ln)” value (30 °C) is reported as -2.64 ± 0.17 and the “self-splicing fitness (ln)” value (37 °C) is reported as -0.807 ± 0.16.
In the case of UCCCAGCAAUAUUACGCGAG, the “self-splicing fitness (ln)” value (30 °C) is reported as -3.41 ± 0.14 and the “self-splicing fitness (ln)” value (37 °C) is reported as -2.91 ± 0.2.
In the case of CAUGAGCAAUAUUACGAAGC, the “self-splicing fitness (ln)” value (37 °C) is reported as -0.241 ± 0.49.
In the case of CCCUAGCAAUAUUACGGGAA, the “self-splicing fitness (ln)” value (30 °C) is reported as -3.63 ± 0.25 and the “self-splicing fitness (ln)” value (37 °C) is reported as -3.08 ± 0.19.
In the case of ACUAAGCAAUAUUACGCCAA, the “self-splicing fitness (ln)” value (30 °C) is reported as -2.24 ± 0.12 and the “self-splicing fitness (ln)” value (37 °C) is reported as -2.26 ± 0.16.
With CAAUAGCAAUAUUACGGCAU the “self-splicing fitness (ln)” value (30 °C) was -3.03 ± 0.17 and the “self-splicing fitness (ln)” value (37 °C) was -1.32 ± 0.26.
For GCAUAGCAAUAUUACGCCUC, the “self-splicing fitness (ln)” value (30 °C) was -1.01 ± 0.23 and the “self-splicing fitness (ln)” value (37 °C) was -0.756 ± 0.28.
With UAUAAGCAAUAUUACGGGAA the “self-splicing fitness (ln)” value (30 °C) was -2.77 ± 0.2 and the “self-splicing fitness (ln)” value (37 °C) was -1.5 ± 0.18.
In the case of GACCAGCAAUAUUACGUGAU, the “self-splicing fitness (ln)” value (30 °C) is reported as -0.306 ± 0.05 and the “self-splicing fitness (ln)” value (37 °C) is reported as -0.151 ± 0.063.
For UUCGAGCAAUAUUACGGGGC, the “self-splicing fitness (ln)” value (30 °C) was -2.86 ± 0.27 and the “self-splicing fitness (ln)” value (37 °C) was -1.48 ± 0.4.
With GCCUAGCAAUAUUACGGGCA the “self-splicing fitness (ln)” value (30 °C) was -1.3 ± 0.12 and the “self-splicing fitness (ln)” value (37 °C) was -1.61 ± 0.12.
In the case of ACAUAGCAAUAUUACGGGCU, the “self-splicing fitness (ln)” value (30 °C) is reported as -1.4 ± 0.13 and the “self-splicing fitness (ln)” value (37 °C) is reported as -0.715 ± 0.16.

— the supplement of paper PMC7877785
